From PMC7332966 (2020)

Target: FANCD2 (from His6-3C-FANCD2, His6-tag cleaved by 3C protease) (human, UniProt Q9BXW9 1-1451)
Sequence (Q9BXW9 whole entry): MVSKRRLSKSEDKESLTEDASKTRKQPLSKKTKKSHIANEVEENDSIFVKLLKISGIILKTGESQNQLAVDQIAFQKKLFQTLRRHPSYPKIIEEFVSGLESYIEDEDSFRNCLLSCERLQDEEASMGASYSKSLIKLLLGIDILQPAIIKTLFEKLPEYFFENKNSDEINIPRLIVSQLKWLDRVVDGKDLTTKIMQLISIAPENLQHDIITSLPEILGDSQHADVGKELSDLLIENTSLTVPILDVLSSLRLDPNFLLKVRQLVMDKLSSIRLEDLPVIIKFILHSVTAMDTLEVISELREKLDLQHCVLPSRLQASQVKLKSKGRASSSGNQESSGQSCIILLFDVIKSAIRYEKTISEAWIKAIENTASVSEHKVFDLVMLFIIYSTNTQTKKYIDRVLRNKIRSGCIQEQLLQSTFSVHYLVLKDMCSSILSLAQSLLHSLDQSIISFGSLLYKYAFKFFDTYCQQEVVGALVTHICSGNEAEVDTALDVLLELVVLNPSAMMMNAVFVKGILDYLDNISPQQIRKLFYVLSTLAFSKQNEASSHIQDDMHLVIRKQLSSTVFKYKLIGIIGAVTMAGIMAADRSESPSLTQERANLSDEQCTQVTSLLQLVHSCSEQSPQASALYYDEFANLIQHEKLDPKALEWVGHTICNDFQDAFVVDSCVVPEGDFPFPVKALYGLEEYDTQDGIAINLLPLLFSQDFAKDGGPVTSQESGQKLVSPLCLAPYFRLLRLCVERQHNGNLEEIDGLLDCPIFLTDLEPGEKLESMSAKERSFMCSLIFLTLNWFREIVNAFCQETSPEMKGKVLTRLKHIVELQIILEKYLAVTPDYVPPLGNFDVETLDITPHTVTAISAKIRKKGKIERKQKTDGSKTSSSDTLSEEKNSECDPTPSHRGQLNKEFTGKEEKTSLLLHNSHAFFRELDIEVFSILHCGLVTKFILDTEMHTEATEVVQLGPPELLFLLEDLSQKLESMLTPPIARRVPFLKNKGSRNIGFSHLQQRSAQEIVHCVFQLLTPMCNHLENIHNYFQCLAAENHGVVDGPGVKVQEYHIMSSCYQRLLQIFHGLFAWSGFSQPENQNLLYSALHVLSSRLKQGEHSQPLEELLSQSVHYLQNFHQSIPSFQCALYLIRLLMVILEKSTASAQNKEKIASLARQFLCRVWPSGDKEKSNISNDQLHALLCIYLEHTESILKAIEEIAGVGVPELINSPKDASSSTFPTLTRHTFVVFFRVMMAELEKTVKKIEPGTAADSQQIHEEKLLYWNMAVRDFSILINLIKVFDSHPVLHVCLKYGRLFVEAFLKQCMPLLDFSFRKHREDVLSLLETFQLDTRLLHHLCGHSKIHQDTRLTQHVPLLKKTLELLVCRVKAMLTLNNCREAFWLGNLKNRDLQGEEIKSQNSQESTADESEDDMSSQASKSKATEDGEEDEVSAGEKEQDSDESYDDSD

Kd: 11 nM
B1: His6-FANCI (wild type) (natural protein)
chain: MDQKILSLAAEKTADKLQEFLQTLREGDLTNLLQNQAVKGKVAGALLRAIFKGSPCSEEAGTLRRRKIYTCCIQLVESGDLQKEIASEIIGLLMLEAHHFPGPLLVELANEFISAVREGSLVNGKSLELLPIILTALATKKENLAYGKGVLSGEECKKQLINTLCSGRWDQQYVIQLTSMFKDVPLTAEEVEFVVEKALSMFSKMNLQEIPPLVYQLLVLSSKGSRKSVLEGIIAFFSALDKQHNEEQSGDELLDVVTVPSGELRHVEGTIILHIVFAIKLDYELGRELVKHLKVGQQGDSNNNLSPFSIALLLSVTRIQRFQDQVLDLLKTSVVKSFKDLQLLQGSKFLQNLVPHRSYVSTMILEVVKNSVHSWDHVTQGLVELGFILMDSYGPKKVLDGKTIETSPSLSRMPNQHACKLGANILLETFKIHEMIRQEILEQVLNRVVTRASSPISHFLDLLSNIVMYAPLVLQSCSSKVTEAFDYLSFLPLQTVQRLLKAVQPLLKVSMSMRDCLILVLRKAMFANQLDARKSAVAGFLLLLKNFKVLGSLSSSQCSQSLSVSQVHVDVHSHYNSVANETFCLEIMDSLRRCLSQQADVRLMLYEGFYDVLRRNSQLANSVMQTLLSQLKQFYEPKPDLLPPLKLEACILTQGDKISLQEPLDYLLCCIQHCLAWYKNTVIPLQQGEEEEEEEEAFYEDLDDILESITNRMIKSELEDFELDKSADFSQSTSIGIKNNICAFLVMGVCEVLIEYNFSISSFSKNRFEDILSLFMCYKKLSDILNEKAGKAKTKMANKTSDSLLSMKFVSSLLTALFRDSIQSHQESLSVLRSSNEFMRYAVNVALQKVQQLKETGHVSGPDGQNPEKIFQNLCDITRVLLWRYTSIPTSVEESGKKEKGKSISLLCLEGLQKIFSAVQQFYQPKIQQFLRALDVTDKEGEEREDADVSVTQRTAFQIRQFQRSLLNLLSSQEEDFNSKEALLLVTVLTSLSKLLEPSSPQFVQMLSWTSKICKENSREDALFCKSLMNLLFSLHVSYKSPVILLRDLSQDIHGHLGDIDQDVEVEKTNHFAIVNLRTAAPTVCLLVLSQAEKVLEEVDWLITKLKGQVSQETLSEEASSQATLPNQPVEKAIIMQLGTLLTFFHELVQTALPSGSCVDTLLKDLCKMYTTLTALVRYYLQVCQSSGGIPKNMEKLVKLSGSHLTPLCYSFISYVQNKSKSLNYTGEKKEKPAAVATAMARVLRETKPIPNLIFAIEQYEKFLIHLSKKSKVNLMQHMKLSTSRDFKIKGNILDMVLREDGEDENEEGTASEHGGQNKEPAKKKRKK
modifications: RED-tris-NTA dye (NanoTemper) on the His6 tag
